# Biological target: HLA-B1501 (human)
# Assay: competition with radiolabeled probe peptide for purified HLA, plate capture, cpm
binder,measurement,value
AVINTTCNYGQ (modifications not checked) [Mtb8.4 5-15 peptide …],IC50,10 nM

# — patent US20110014224A1
